Data published in patent US20210403593A1 (TIZONA THERAPEUTICS, published 2021).
Positions count from the first letter of the chain named.

T1: cynomolgus macaque (Macaca fascicularis) CD39 (Macaca fascicularis, UniProt P49961 7-510 (human entry))
T1 construct: On engineered CHO cells and on primary cyno B cells and monocytes; also called cyno CD39; cCD39
T1 chain: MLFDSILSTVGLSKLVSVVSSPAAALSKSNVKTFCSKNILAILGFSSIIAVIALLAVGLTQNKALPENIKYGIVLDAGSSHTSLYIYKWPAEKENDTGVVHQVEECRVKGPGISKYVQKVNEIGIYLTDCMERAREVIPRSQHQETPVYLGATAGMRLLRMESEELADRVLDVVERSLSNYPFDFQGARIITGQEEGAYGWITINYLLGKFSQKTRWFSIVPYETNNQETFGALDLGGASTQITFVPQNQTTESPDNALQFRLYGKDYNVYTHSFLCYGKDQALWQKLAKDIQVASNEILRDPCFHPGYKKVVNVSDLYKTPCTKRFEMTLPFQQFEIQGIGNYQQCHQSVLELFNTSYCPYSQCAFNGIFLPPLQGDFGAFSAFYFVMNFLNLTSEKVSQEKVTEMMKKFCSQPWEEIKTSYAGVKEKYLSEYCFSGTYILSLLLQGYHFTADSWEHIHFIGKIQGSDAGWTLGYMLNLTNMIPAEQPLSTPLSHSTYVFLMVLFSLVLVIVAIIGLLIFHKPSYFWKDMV

T2: human CD39 (cellular) (human, UniProt P49961 1-510)
T2 construct: Same protein on engineered CHO cells and on cells that express it endogenously; also called hCD39; cellular CD39
T2 sequence: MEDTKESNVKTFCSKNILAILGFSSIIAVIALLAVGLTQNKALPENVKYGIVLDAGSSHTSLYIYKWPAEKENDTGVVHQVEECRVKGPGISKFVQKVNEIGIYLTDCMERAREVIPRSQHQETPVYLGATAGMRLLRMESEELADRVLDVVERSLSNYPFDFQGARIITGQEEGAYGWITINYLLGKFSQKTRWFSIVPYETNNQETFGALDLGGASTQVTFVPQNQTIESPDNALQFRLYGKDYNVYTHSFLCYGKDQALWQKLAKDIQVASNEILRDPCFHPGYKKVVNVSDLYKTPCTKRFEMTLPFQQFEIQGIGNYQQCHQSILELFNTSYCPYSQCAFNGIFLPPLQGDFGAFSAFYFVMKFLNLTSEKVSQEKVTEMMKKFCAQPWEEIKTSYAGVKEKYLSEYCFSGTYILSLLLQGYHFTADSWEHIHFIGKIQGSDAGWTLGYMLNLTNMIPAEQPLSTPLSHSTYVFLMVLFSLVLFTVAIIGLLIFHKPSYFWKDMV

B1: 27549 (antibody, human IgG4 S228P, kappa, V domains shown)
VH: QVQLVESGGGVVQPGRSLRLSCAASGFTFSSYGMNWVRQAPGKGLEWVAVIWYDGSNKYYADSVKGRFTISRDNSKNTLYLQMNSLRAEDTAVYYCARDLGGYSYGEPYYYYYGMDVWGQGTTVTVSS
VL: EIVLTQSPGTLSLSPGERATLSCRASQSVSSDYLAWYQQKPGQAPRLLIYGASSRATGIPDRFSGSGSGTDFTLTISRLEPEDFAVYYCQQAHSSPYTFGGGTKVEIKR
B2: 27590 (antibody, V domains shown)
VH: QVQLVQSGAEVKKPGSSVKVSCKASGGTFSNYAISWVRQAPGQGLEWMGGIIPIFGTANYAQKFQGRVTITADESTSTAYMELSSLRSEDTAVYYCARGPTVTATTSIGTHNWFDPWGQGTLVTVSS
VL: EIVLTQSPATLSLSPGERATLSCRASQSVSSYLAWYQQKPGQAPRLLIYDASNRATGIPARFSGSGSGTDFTLTISSLEPEDFAVYYCQQRNFYPPTFGGGTKVEIK
B3: 27536 (antibody, V domains shown)
VH: QVQLVQSGAEVKKPGSSVKVSCKASGGTFSNYAISWVRQAPGQGLEWMGGIIPIFGTANYAQKFQGRVTITADESTSTAYMELSSLRSEDTAVYYCARDTLYSSGAYYGYNVWGQGTMVTVSS
VL: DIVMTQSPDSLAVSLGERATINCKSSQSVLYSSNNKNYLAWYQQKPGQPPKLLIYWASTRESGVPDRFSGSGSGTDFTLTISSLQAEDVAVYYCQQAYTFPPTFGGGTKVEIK
B4: 27535 (antibody, human IgG4 S228P, kappa, V domains shown)
VH: QVQLVQSGAEVKKPGSSVKVSCKASGGTFSSYAISWVRQAPGQGLEWMGGIIPIFGTANYAQKFQGRVTITADESTSTAYMELSSLRSEDTAVYYCARDTPRWRYHYFDYWGQGTLVTVSS
VL: EIVLTQSPATLSLSPGERATLSCRASQSVSSYLAWYQQKPGQAPRLLIYDASKRATGIPARFSGSGSGTDFTLTISSLEPEDFAVYYCQQVLNYPLTFGGGTKVEIKR
B5: 27597 (antibody, human IgG4 S228P, kappa, V domains shown)
VH: QVQLVQSGAEVKKPGSSVKVSCKASGGTFSSYAISWVRQAPGQGLEWMGSIIPIFGTANYAQKFQGRVTITADESTSTAYMELSSLRSEDTAVYYCAREGRGYDSSRYYKFWFDPWGQGTLVTVSS
VL: B4 VL with K53N, V91F, L92V, N93L, Y94W, L96R
B6: 27568 (antibody, human IgG4 S228P, kappa, V domains shown)
VH: QVQLVQSGAEVKKPGSSVKVPCKASGGTFSSYAISWVRQAPEQGLEWMGSIIPIFGTANYAQKFQGRVTITADESTSTAYMELSSLRSEDTAVYYCAGESGGYRDHKLDVWGQGTVVTVSS
VL: B4 VL with K53N, V91S, L92V, N93F, Y94W, L96I
B7: 27596 (antibody, human IgG4 S228P, kappa, V domains shown)
VH: B4 VH with T100P, P101L, R102G, W103I, Y105K, Y107W, Y110P
VL: B4 VL with L4M, K53N, V91H, L92T, N93V, Y94W, L96I
B8: 27587 (antibody, human IgG4 S228P, kappa, V domains shown)
VH: B6 VH with P21S, E42G, G98R, V116M
VL: B4 VL with V91D, L92V, N93L, Y94W
B9: 27550 (antibody, human IgG4 S228P, kappa, V domains shown)
VH: EVQLVESGGGLVKPGGSLRLSCAASGFTFSSYSMNWVRQAPGKGLEWVSSISSSSSYIYYADSVKGRFTISRDNAKNSLYLQMNSLRAEDTAVYYCARERRGSLALGMDVWGQGTLVTVSS
VL: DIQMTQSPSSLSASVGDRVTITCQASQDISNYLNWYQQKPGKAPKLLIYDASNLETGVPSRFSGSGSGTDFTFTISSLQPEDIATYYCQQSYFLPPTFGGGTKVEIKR
B10: 27589 (antibody, human IgG4 S228P, kappa, V domains shown)
VH: QVQLVQSGAEVKKPGSSVKVSCKASGGTFSSYAISWVRQAPGQGLEWMGGIIPIFGTANYAQKFQGRVTITADESTSTAYMELSSLRSEDTAVYYCARDSGYHRHYSDYWGQGTLVTVSS
VL: DIQMTQSPSTLSASVGDRVTITCRASQSISSWLAWYQQKPGKAPKLLIYKASSLESGVPSRFSGSGSGTEFTLTISSLQPDDFATYYCQQYGLFPITFGGGTKVEIKR
B11: 27579 (antibody, V domains shown)
VH: QVQLVQSGAEVKEPGASVKVSCKAPGYTFTSYYMHWVRQAPGQGLEWMGVINPSGGSTSYAQKFQGRVTMTRDTSTSTVYMELSSLRSEDTAVYYCARGKREGGTEYLRHWGQGTLVTVSS
VL: EIVLTQSPGTLSLSPGERATLSCRASQSVSSSYLAWYQQKPGQAPRLLIYGASSRATGIPDRFSGSGSGTDFTLTISRLEPEDFAVYYCQQYHSYITFGGGTKVEIK
B12: 31431 (antibody, V domains shown)
VH: B11 VH with E13K, P25S, Y33Q, V50R, S59W
VL: B11 VL with S30A, S54N, A56H, S94G, Y95G
B13: 31429 (antibody, V domains shown)
VH: B11 VH with E13K, P25S, T30V, Y33F, V50S, S54R
VL: B11 VL with S28Y, G51Y, S54N, Y95G
B14: 29872 (antibody, V domains shown)
VH: B11 VH with E13K, P25S, T30K, Y33E, V50R, G55V, S59W
VL: B11 VL
notes: also called anti-CD39 antibody 29872
B15: 31421 (antibody, V domains shown)
VH: B11 VH with E13K, P25S, T30F, H35Y, S54L, S57G
VL: B11 VL with R24K, Q27E, G51Y, S94R, Y95R
B16: 27588 (antibody, V domains shown)
VH: QVQLVQSGAEVKKPGSSVKVSCKASGGTFSNYAISWVRQAPGQGLEWMGGIIPIFGTANYAQKFQGRVTITADESTSTAYMELSSLRSEDTAVYYCARAKRGYDSYGGVYFDYWGQGTLVTVSS
VL: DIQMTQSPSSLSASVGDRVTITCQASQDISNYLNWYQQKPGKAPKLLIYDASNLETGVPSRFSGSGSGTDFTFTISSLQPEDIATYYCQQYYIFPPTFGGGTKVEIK
B17: 27577 (antibody, human IgG4 S228P, kappa, V domains shown)
VH: QVQLVQSGAEVKKPGSSVKVSCKASGGAFSSYAIGWVRQAPGQGLEWMGGIIPTFGTANYAQKFQGRVTITADESTSTAYMELSSLRSEDTAVYYCARDGGGYQHHYFDLWGRGTLVTVSS
VL: EIVMTQSPATLSVSPGERATLSCRASQSVGSNLAWYQQKPGQAPRLLIYGASTRATGIPARFSGSGSGTEFTLTISSLQSEDFAVYYCQQLTKWPLTFGGGTKVEIKR
B18: 27571 (antibody, V domains shown)
VH: B6 VH with V20A, P21S, E42G, Q65R, A79T, G98R, K107R, V116M
VL: EIVMTQSPATLSVSPGERATLSCRASQSVGSNLAWYQQKPGQAPRLLIYGASTRATGIPARFSGSGSGTEFTLTISSLQSEDFAVYYCQQYLIWPLTFGGGTKVEIK
B19: 31393 (antibody, human IgG4 S228P, kappa, V domains shown)
VH: B6 VH with P21S, S30E, A33G, E42G, I54E, T57I, A79T, G98R, K107R, V116M
VL: B17 VL with L91Y, T92L, K93L
B20: 31861 (antibody, human IgG4 S228P, kappa, V domains shown)
VH: B6 VH with P21S, S30G, A33G, E42G, I54E, T57I, G98R, G102T, K107R, V116M
VL: B17 VL with L91Y, T92L, K93L
B21: 28347 (antibody, V domains shown)
VH: QVQLVQSGAEVKKPGSSVKVSCKASGGTFSSLAISWVRQAPGQGLEWMGGIIPIFGTANYAQKFQGRVTITADESTNTAYMELSSLRSEDTAVYYCARGGAKYASTYGMDVWGQGTTVTVSS
VL: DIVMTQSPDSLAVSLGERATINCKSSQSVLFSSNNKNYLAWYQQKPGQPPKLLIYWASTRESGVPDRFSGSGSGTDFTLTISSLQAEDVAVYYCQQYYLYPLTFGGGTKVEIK

Target: T1, cynomolgus macaque (Macaca …)
Assay: flow cytometry, 100 nM IgG, MFI on CHO-cCD39 / MFI on parental CHO;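 further: antibodies bound to the cells for 30 min in PBS, then bound IgG was revealed with a fluorescent goat anti-human IgG secondary antibody, 20 min on ice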
Method: (§1) 100 nanomolar IgGs (each antibody is indicated as a unique clone number in the FIG.) were incubated at 25° C. for 30 minutes on ice in phosphate buffered saline (PBS) with parental CHO cells or CHO cells engineered to express either human or cynomolgus macaque (Macaca fascicularis) CD39 (CHO CD39 cells). Cells were then washed with ice cold PBS and incubated with a fluorescently labeled goat-anti-human IgG for 20 minutes on ice. Cells were washed and resuspended in ice cold PBS prior to analysis by flow cytometry.

Point of comparison: B7, “Cell Binding (FOB)” value 257 fold over background. Against it:
- B1 — higher, 566 fold over background
- B2 — lower, 44 fold over background
- B3 — lower, 113 fold over background
- B4 — higher, 738 fold over background
- B5 — higher, 908 fold over background
- B6 — higher, 260 fold over background
- B8 — higher, 1400 fold over background
- B9 — higher, 2870 fold over background
- B10 — higher, 531 fold over background
- B11 — higher, 2670 fold over background
- B12 — higher, 3530 fold over background
- B13 — higher, 3800 fold over background
- B14 — higher, 4190 fold over background
- B15 — higher, 3050 fold over background
- B16 — lower, 14 fold over background
- B17 — higher, 339 fold over background
- B18 — higher, 1610 fold over background
- B19 — higher, 2960 fold over background
- B20 — higher, 5480 fold over background
- B21 — higher, 1340 fold over background

Target: T2, human CD39 (cellular)
Assay: flow cytometry, 100 nM IgG, MFI on CHO-hCD39 / MFI on parental CHO;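 further: cells exposed to IgG for 30 min on ice in PBS, bound antibody then revealed with a fluorescent goat anti-human IgG secondary (20 min, on ice)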
Method: as §1

Point of comparison: B4, “Cell Binding (FOB)” value 301 fold over background. Against it:
- B1 — higher, 822 fold over background
- B2 — lower, 33 fold over background
- B3 — lower, 89 fold over background
- B5 — higher, 799 fold over background
- B6 — lower, 267 fold over background
- B7 — lower, 252 fold over background
- B8 — higher, 1450 fold over background
- B9 — higher, 2030 fold over background
- B10 — higher, 311 fold over background
- B11 — higher, 1950 fold over background
- B12 — higher, 1240 fold over background
- B13 — higher, 1290 fold over background
- B14 — higher, 1450 fold over background
- B15 — higher, 1080 fold over background
- B16 — lower, 10 fold over background
- B17 — higher, 390 fold over background
- B18 — higher, 1400 fold over background
- B19 — higher, 1060 fold over background
- B20 — higher, 1430 fold over background
- B21 — higher, 1020 fold over background
